From article PMC9889962 (Antibody Therapeutics, 2023)

Target: T1, FcRn receptor (UniProt P55899 24-365)
T1 construct: also called purified FcRn
Test: SPR
Details: both partners purified

B1: LiVE-Longer YTE chimera (ACE-2 LVE/STR-YTE fusion protein) (Fc fusion)
chain: QSTIEEQAKLFLDKFNVEAEDLFYQSSLASWNYNTNITEENVQNMNNAGDKWSAFLKEQSTLAQMYPLQEIQELTVKLQLQALQQNGSSVLSEDKSKRLNTILNTMSTIYSTGKVCNPDNPQECLLLEPGLNEIMANSLDYNERLWAWESWRSEVGKQLRPLYEEYVVLKNEMARANHYEDYGDYWRGDYEVNGVDGYDYSRGQLIEDVEHTFEEIKPLYEHLHAYVRAKLMNAYPSYISPIGCLPAHLLGDMWGRFWTNLYSLTVPFGQKPNIDVTDAMVDQAWDAQRIFKEAEKFFVSVGLPNMTQGFWENSMLTDPGNVQKAVCHPTAWDLGKGDFRILMCTKVTMDDFLTAHHEMGHIQYDMAYAAQPFLLRNGANEGFHEAVGEIMSLSAATPKHLKSIGLLSPDFQEDNETEINFLLKQALTIVGTLPFTYMLEKWRWMVFKGEIPKDQWMKKWWEMKREIVGVVEPVPHDETYCDPASLFHVSNDYSFIRYYTRTLYQFQFQEALCQAAKHEGPLHKCDISNSTEAGQKLFNMLRLGKSEPWTLALENVVGAKNMNVRPLLNYFEPLFTWLKDQNKNSFVGWSTDWSPYADQSIKVRISLKSALGDKAYEWNDNEMYLFRSSVAYAMRQYFLKVKNQMILFGEEDVRVANLKPRISFNFFVTAPKNVSDIIPRTEVEKAIRMSRSRINDAFRLNDNSLEFLGIQPTLGPPNQPPVS
Work on B1 yielded a Kd of 27 nM.
